Entries after “also recorded” stand apart in the source; their conditions may differ.
Legend:
CXCR4 [1] = target: T1, CXCR4 (Homo sapiens, UniProt P61073); assay: Competition with 125I-SDF-1α binding to CEMx174 cells; design: host or cells: CEMx174 (174xCEM); settings: room temperature, 0.1% sodium azide, FIG. 7B, 7C
Protocol: FIGS. 7A through 7C depicts the inhibition of chemokine receptor ligand binding by peptide pre-treatment. FIG. 7A. Effect of pre-treatment with peptides 15K and 15D on the binding of MIP-1β to SupT1/CCR5 cells; FIG. 7B. Effect of pre-treatment with peptides 15K and 1SD on the binding of SDF-1α to CEMx174 cells; and FIG. 7C. Effect of pre-treatment with 15K and control peptide 15GIG on the binding of SDF-1α to CEmx174 cells. Binding studies were performed as described in Materials and Methods.
Binding assays were performed with HEK-CCR5 or HEK CXCR4 in triplicate by adding unlabeled competitor (anti-coreceptor binding peptide or control chemokine) and radiolabeled chemokine, 0.2 ng/ml (^125I-MIP-1β or SDF-1α, specific activity 2000 Ci/mmol, NEN Life Science Products) to a cell suspension (4×10^5 cells in 200 μl) in RPMI 1640 supplemented with 1% bovine serum albumin and 25 mM HEPES pH 8.0 (binding medium). Cells were then incubated at 22° C. for 40 min with continuous rotation. After incubation cells were transferred to the tubes containing 800 μl of 10% sucrose in PBS and harvested by centrifugation. The supernatant was aspirated and the cell-associated radioactivity was measured using a 1272 Wallac gamma counter. Binding assays were performed with the 174xCEM and Sup-T1 cells expressing CCR5 in duplicates by adding unlabeled competitor (peptide or control chemokine) and radiolabeled chemokine, 0.2 ng/ml (^125I-MIP-1β or ^125I-SDF-1α, specific activity 2000 Ci/mmol, NEN life Science Products) to 300 μl cell suspension (4×10^6 cells/ml) in RPMI 1640 supplemented with 1% bovine serum albumin, 0.1% sodium azide and 25 mM HEPES pH 8.0 (binding medium). Cells were then incubated at 22° C. for 30 min with continuous rotation. After incubation cells were transferred to the tubes containing 800 μl of 10% sucrose in PBS and harvested by centrifugation, the supematant was aspirated and the cell-associated radioactivity was measured using a 1272 Wallac gamma counter. The data were analyzed by nonlinear regression using the computer program GraphPad Prizm 3.0. […]

CXCR4 [2] = target: T1, CXCR4; assay: Ca2+ mobilization in THP-1 cells in response to SDF-1α (fura-2); type: cell-based; settings: peptide 500 μM preincubated, SDF-1α 100 ng/ml, FIG. 6
Protocol: FIGS. 6A through 6D depict the effect of peptide pre-treatment on the mobilization of intracellular Ca^2+ in THP-1 cells in response to SDF-1α. Cells loaded with fura-2 were preincubated with peptide 15K (FIG. 6C), 15D (FIG. 6B) and 15CW (FIG. 6D) at a final concentration of 500 μM for 3 min prior to stimulation with SDF-1α (100 ng/ml).
THP-1 cells (12×10^6/ml in RPMI 1640 containing 10% FSB) were loaded in the presence of 5 μM fura-2 AM (Molecular Probes, Eugene, Oreg.) at 22° C. for 30 min in the dark. Subsequently, cells were washed three times and resuspended (10^6 cells/ml) in the buffer containing 138 mM sodium chloride, 6 mM potassium chloride, 1 mM calcium chloride, 1 mM magnesium chloride, 10 mM HEPES, pH 7.4,5 mM glucose, and 0.1% bovine serum albumin. 1.93 ml of loaded cells was transferred into a quartz cuvette. 50 μl of a peptide stock solution (2×10^−2 M) was added to the cells, and after 3 min of incubation 20 μl of human SDF-1α (10 μg/ml, PeproTech) was added to a stirred cuvette. The measurements were performed using luminescence spectrophotometer LS50 B (Perkin-Elmer). Ca^2+ mobilization in the cells in response to SDF-1α was measured by analysis of the ratio of fluorescence emitted at 510 nm after sequential excitation at 340 and 380 nm.
The increase of intracellular Ca^2+ concentration mediated by a chemokine receptor in response to a cognate chemokine is a reliable assay for measurement of chemokine agonist activity. The human monocytic cell line THP-1 expresses a high level of CXCR4 and responds well to SDF-1α stimulation (FIG. 6A), so these cells were used to determine whether peptides 15D and 15K could block the activation of CXCR4.

CXCR4 [3] = target: T1, CXCR4; assay: Binding of anti-CXCR4 antibody 12G5 to CEMx174 cells (flow cytometry); design: host or cells: CEMx174 (174xCEM); settings: CEMx174 cells, preincubation 60 min 22° C.; FIG. 5
Protocol: FIG. 5A. Dose dependent effect of peptide 15K in comparison with SDF-1α. FIG. 5B. The comparison of the effects of 15K and 15D. FIG. 5C. The comparison of the effects of 15K and 15KS. Cells were preincubated at 22° C. with peptides at designated concentrations of SDF-1α for 60 min. Then cells were incubated with FITC-labeled anti-human CXCR4 monoclonal antibodies 12G5 for 40 min at 22° C. and washed with FACS buffer prior to flow cytometry.
CEMx174 cells were pelleted and resuspended at 10^6 cells/ml in PBS containing 1% BSA and 0.1% sodium azide (FACS buffer). Cells were then preincubated with designated concentrations of peptides or SDF-1-α (1 μg/ml) at 22° C. for 60 min. FITC-labeled anti-human CXCR4 antibody (clone 12G5, BD PharMingen, San Diego, Calif.) was added to the cells per the manufactures instructions and further incubated at 22° C. for 40 minutes. Cells were extensively washed with FACS buffer and analyzed using a FACS Calibur flowcytometer (Becton Dickinson). HEK/CCR5 cells were suspended in Dulbecco's PBS containing 1% FCS and 0.05% NaN3 (10^4 cells in 100 μl) and incubated with or without 5 μg of MIP-1β (PeproTech, Rocky Hill, N.J.), 0.1 mM peptide 15D or 15K for 45 min at 22° C. Cells were then treated with FITC-conjugated anti-human CCR5 antibody (2D7; BD PharMingen, San Diego, Calif.), and incubated for 30 min at 22° C. Cells were washed twice, and analyzed using a FACScan flow cytometer (Becton Dickinson Immunocytometry Systems, San Jose, Calif.).
To determine if peptides 15D and 15K interact directly with chemokine receptors the effect of these and control peptides on the binding of anti-chemokine receptor antibodies to CXCR4 and CCR5 was studied. The monoclonal antibody 12G5 recognizes a conformational extracellular epitope on CXCR4. This antibody blocks the infectivity of some X4 strains of HIV-1 and HIV-2 (Endres et al., Cell 87:745-756, 1996; Hoxie et al., J. Reprod. Immunol. 41:197-211(1998); McKnight et al., J. Virol. 74:1692-1696(1997), 19, 26). […] Further, the binding of 12G5 to CXCR4 receptor-expressing cells is prevented by anti-HIV compounds. […] 73:2752-2761, 1999. To determine the importance of the particular amino acid sequence of the inhibitory activity of the peptides. The effects of peptide 15K and the corresponding scrambled peptide 15KS on binding of 12G5 to CXCR4 was compared. […] Apparently there is a direct correlation between the ability of 15K to inhibit the anti-CXCR4 antibody binding and its ability to inhibit HIV-1 infectivity since the scrambled peptide 15KS with the same amino acid comparison has reduced ability to manifest both these activities.

HIV-1IIIB = HIV-1IIIB infection of PBMC, p24 ELISA; type: cell-based; settings: peptide 1 hr before HIV-1IIIB, p24 after 48 hr; FIG. 4
Protocol: Peripheral blood mononuclear cells were treated with designated concentrations of peptide for a period of 1 hr prior to addition of HIV-1IIIB. After 2 hr, cells were washed, and viral replication was determined after 48 hr by analysis of p24 levels. Results are representative of 4 independent experiments.
PBMCs were obtained from whole blood of normal donors and isolated by Ficoll-Paque Plus (Pharmacia Biotech, Piscataway, N.J.) density gradient centrifugation, and plated at a cell density of 2×10^6 cells/ml. Monocyte-derived macrophages (MDM) were generated from adherent human peripheral blood mononuclear cells by culture for 7 days with M-CSF (100 ng/ml). Cultures were maintained in RPMI-1640 medium (Life Technologies, Rockville, Md.) supplemented with 10% heat-inactivated endotoxin-free FCS (Hyclone, Logan, Utah), 10 μg/ml gentamicin, and 1 mM glutamine. Cells were treated with designated concentrations of the exemplary peptides 15K or 15D, and after 1 hr cells were infected with HIV-1IIIB (T cell tropic) or HIV-1JRFL (monocyte tropic) at an multiplicity of infection (MOI) of 0.1. After 2 hr, cells were washed, and cultured for additional 48-72 hr, followed by analysis of HIV replication as determined by quantification of accumulated p24 in the supernatant. The production of p24 was determined by conventional sandwich ELISA, using ELISA plates pre-coated with capture anti-p24 antibodies provided by the AIDS Vaccine Program (SAIC Frederick, NCI-FCRDC, Frederick, Md.). The captured p24 antigen was detected using rabbit anti-HIV-1 anti-p24 antibody, and a secondary goat anti-rabbit IgG (peroxidase-labeled) antibody. The captured p24 protein was detected using a 3,3′,5,5′-tetramethylbenzidine and hydrogen peroxide detection system (KPL Laboratories, Gaithersburg, Md.). The reaction was read spectrophotometrically at 450 nm. No cytotoxicity was detectable following treatment of PBMC with the peptides even at a concentration of 100 μg/ml.
In view of the foregoing binding inhibition studies, and considering the homology between the 15K and 15D peptides and the CXCR4 ligand SDF-1α, it was further undertaken to determine the capacity of the synthetic peptides to inhibit CXCR4 co-receptor function. In particular, experiments were carried out to assess the ability of 15K or 15D to alter the infection of PBMCs with the T cell-tropic […] strain. […] Significant inhibition of HIV-1 infection was detected with concentrations of peptides as low as 10 ng/ml.

T1 sequence (P61073 whole entry): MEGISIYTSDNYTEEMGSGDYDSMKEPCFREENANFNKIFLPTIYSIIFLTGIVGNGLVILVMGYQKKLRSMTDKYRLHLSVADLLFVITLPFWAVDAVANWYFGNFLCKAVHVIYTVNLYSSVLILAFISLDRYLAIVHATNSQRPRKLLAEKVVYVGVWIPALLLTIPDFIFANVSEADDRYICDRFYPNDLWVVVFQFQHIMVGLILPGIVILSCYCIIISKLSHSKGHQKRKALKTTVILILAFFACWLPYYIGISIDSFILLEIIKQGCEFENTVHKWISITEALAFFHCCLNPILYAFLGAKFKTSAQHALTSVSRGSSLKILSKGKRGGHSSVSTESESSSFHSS

G I G D P V T C L K S G A I A (GIGDPVTCLKSGAIA) [Peptide 15GIG, reference compound]
inhibition of SDF-1α binding to CXCR4 (CXCR4 [1]): significantly lower competing activity

I R K A H C W I D R A D N N S [Peptide 15CW, reference compound]
inhibition of Ca2+ mobilization in response to SDF-1α (CXCR4 [2]): less effective

K I N S W R A D N I H C K A R (KINSWRADNIHCKAR) [Peptide 15KS, reference compound]
inhibition of 12G5 antibody binding to CXCR4 (CXCR4 [3]): significantly less inhibitory activity; also recorded: a low level of inhibitory activity
inhibition of T cell-tropic HIV-1 infection of PBMCs (p24) (HIV-1IIIB): significantly less inhibition

— US20060116325A1, “Methods and compositions for inhibiting hiv-coreceptor interactions” (priority 2001, published 2006)
